From patent US20230051872A1, “Multivalent D-Peptidic Compounds for Target Proteins” (Reflexion Pharmaceuticals, Inc., priority 2019, published 2023)
Where a chain is given by its changes, count along the chain named.

Columns and labels:
[1] = Subcutaneous immunization, ELISA for antigen-specific serum IgG (anti-drug antibodies); format: in vivo, BALB/c mice; details: repeated subcutaneous immunization with adjuvant, Days 0, 21, 35; serum to Day 42
Protocol: Adjuvant was purchased from TiterMax. […] All the procedures related to animal handling, care and treatment in the study were performed according to the guidelines set forth in an ACUP protocol for polyclonal antisera production in mice, approved by the Institutional Animal Care and Use Committee (IACUC) of Josman LLC.

PD-1/PD-L1 complex = PD-1/PD-L1 complex (Homo sapiens, UniProt Q9NZQ7); details: in vitro, reference 31; read-out: IC50, dissociation of PD-1/PD-L1 complex; cited from earlier work
Sequence of PD-1/PD-L1 complex (Q9NZQ7 19-238 limits assumed, one chain of several): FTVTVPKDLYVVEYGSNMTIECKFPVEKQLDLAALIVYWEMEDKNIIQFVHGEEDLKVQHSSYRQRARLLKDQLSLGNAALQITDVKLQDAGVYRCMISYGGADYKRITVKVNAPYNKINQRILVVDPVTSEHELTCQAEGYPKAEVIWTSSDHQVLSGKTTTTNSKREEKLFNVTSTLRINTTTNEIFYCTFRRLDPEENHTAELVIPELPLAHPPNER

[2] = target: Human PD-1-Fc (R&D Systems cat #1086-PD-050), biotinylated (human) (UniProt Q15116); experiment: SPR (Table 2)
Sequence of Human PD-1-Fc (R&D Systems cat #1086-PD-050), biotinylated (human) (Q15116 25-167 limits assumed): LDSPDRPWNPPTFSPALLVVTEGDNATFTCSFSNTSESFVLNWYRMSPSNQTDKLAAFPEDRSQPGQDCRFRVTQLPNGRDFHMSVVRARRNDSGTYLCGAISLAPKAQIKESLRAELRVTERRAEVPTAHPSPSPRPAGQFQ

[3] = target: Human PD-1-Fc (R&D Systems cat #1086-PD-050), biotinylated (human) (UniProt Q15116); experiment: SPR, D-peptidic compound on natural L-PD-1 (Example 1)

## nivolumab
[1]
  anti-drug antibody response (antigen-specific serum IgG): strong serum IgG titers

## C[C@@H](O)[C@H](NC(=O)N[C@@H](CC(N)=O)c1nc([C@H](N)CO)no1)C(=O)O [CA-170]
PD-1/PD-L1 complex
  IC50: 5 to 10 mM

B1: RFX-977296 (designed binder)
chain: TIDQWLLKNAKEDAIAELKKAGITSDLYFNWINVAGSVSSVNFHKNYILKAHA
modifications: D-protein
[2]
  Kd: 1510 nM
[3]
  Kd: 625 nM

B2: 977978 (designed binder)
chain: B1 chain with S25C
modifications: not fully specified; D-protein
[2]
  Kd: 114 nM
